{"source": "paper PMC7688965", "assay_in_all_cases": "IP-MS (HA-IP, label-free LC/MS-MS)", "key": {"HSPH1": {"biological_target": "HSPH1", "conditions": "HA-tagged Hop exogenously overexpressed in KO1 cells; n = 2; read off a plot"}, "USP7": {"biological_target": "USP7", "conditions": "HA-tagged Hop exogenously overexpressed in KO1 cells; n = 2; right graph; read off a plot"}, "PSMC4": {"biological_target": "PSMC4", "conditions": "HA-tagged Hop exogenously overexpressed in KO1 cells; n = 2; left graph; read off a plot"}, "CDC37": {"biological_target": "CDC37", "conditions": "HA-tagged Hop exogenously overexpressed in KO1 cells; n = 2; read off a plot"}, "PSMC3": {"biological_target": "PSMC3", "conditions": "HA-tagged Hop exogenously overexpressed in KO1 cells; n = 2; left graph; read off a plot"}, "AHSA1": {"biological_target": "AHSA1", "conditions": "HA-tagged Hop exogenously overexpressed in KO1 cells; n = 2; read off a plot"}, "PSMD13": {"biological_target": "PSMD13", "conditions": "HA-tagged Hop exogenously overexpressed in KO1 cells; n = 2; left graph; read off a plot"}, "PSMD11": {"biological_target": "PSMD11", "conditions": "HA-tagged Hop exogenously overexpressed in KO1 cells; n = 2; left graph; read off a plot"}, "HUWE1": {"biological_target": "HUWE1", "conditions": "HA-tagged Hop exogenously overexpressed in KO1 cells; n = 2; right graph; read off a plot"}, "DNAJA1": {"biological_target": "DNAJA1", "conditions": "HA-tagged Hop exogenously overexpressed in KO1 cells; n = 2; read off a plot"}, "HSPA4": {"biological_target": "HSPA4", "conditions": "HA-tagged Hop exogenously overexpressed in KO1 cells; n = 2; read off a plot"}, "PSMD12": {"biological_target": "PSMD12", "conditions": "HA-tagged Hop exogenously overexpressed in KO1 cells; n = 2; left graph; read off a plot"}, "HSPA4L": {"biological_target": "HSPA4L", "conditions": "HA-tagged Hop exogenously overexpressed in KO1 cells; n = 2; read off a plot"}, "PSMC2": {"biological_target": "PSMC2", "conditions": "HA-tagged Hop exogenously overexpressed in KO1 cells; n = 2; left graph; read off a plot"}, "DNAJA2": {"biological_target": "DNAJA2", "conditions": "HA-tagged Hop exogenously overexpressed in KO1 cells; n = 2; read off a plot"}, "PSMC5": {"biological_target": "PSMC5", "conditions": "HA-tagged Hop exogenously overexpressed in KO1 cells; n = 2; left graph; read off a plot"}, "PSMD3": {"biological_target": "PSMD3", "conditions": "HA-tagged Hop exogenously overexpressed in KO1 cells; n = 2; left graph; read off a plot"}, "HSPA6;HSPA7": {"biological_target": "HSPA6;HSPA7", "conditions": "HA-tagged Hop exogenously overexpressed in KO1 cells; n = 2; read off a plot"}, "USP10": {"biological_target": "USP10", "conditions": "HA-tagged Hop exogenously overexpressed in KO1 cells; n = 2; right graph; read off a plot"}, "UBA1": {"biological_target": "UBA1", "conditions": "HA-tagged Hop exogenously overexpressed in KO1 cells; n = 2; right graph; read off a plot"}, "PSMC1": {"biological_target": "PSMC1", "conditions": "HA-tagged Hop exogenously overexpressed in KO1 cells; n = 2; left graph; read off a plot"}, "UBE2N;UBE2NL": {"biological_target": "UBE2N;UBE2NL", "conditions": "HA-tagged Hop exogenously overexpressed in KO1 cells; n = 2; right graph; read off a plot"}, "HSPA5": {"biological_target": "HSPA5", "conditions": "HA-tagged Hop exogenously overexpressed in KO1 cells; n = 2; read off a plot"}, "USP5": {"biological_target": "USP5", "conditions": "HA-tagged Hop exogenously overexpressed in KO1 cells; n = 2; right graph; read off a plot"}}, "data": [{"substance": "HA-tagged WT Hop (from UniProt P31948) K8A; K229A", "values": [{"measurement": "other: normalized enrichment (log2) WT Hop / K8A,K229A Hop", "setting": "HSPH1", "result": 4, "unit": "log2"}, {"measurement": "other: normalized enrichment (log2) WT Hop / K8A,K229A Hop", "setting": "USP7", "result": 2.9, "unit": "log2"}, {"measurement": "other: normalized enrichment (log2) WT Hop / K8A,K229A Hop", "setting": "PSMC4", "result": 0.25, "unit": "log2"}, {"measurement": "other: normalized enrichment (log2) WT Hop / K8A,K229A Hop", "setting": "CDC37", "result": 3.2, "unit": "log2"}, {"measurement": "other: normalized enrichment (log2) WT Hop / K8A,K229A Hop", "setting": "PSMC3", "result": 1, "unit": "log2"}, {"measurement": "other: normalized enrichment (log2) WT Hop / K8A,K229A Hop", "setting": "AHSA1", "result": 3, "unit": "log2"}, {"measurement": "other: normalized enrichment (log2) WT Hop / K8A,K229A Hop", "setting": "PSMD13", "result": 2.1, "unit": "log2"}, {"measurement": "other: normalized enrichment (log2) WT Hop / K8A,K229A Hop", "setting": "PSMD11", "result": 1.7, "unit": "log2"}, {"measurement": "other: normalized enrichment (log2) WT Hop / K8A,K229A Hop", "setting": "HUWE1", "result": 2.7, "unit": "log2"}, {"measurement": "other: normalized enrichment (log2) WT Hop / K8A,K229A Hop", "setting": "DNAJA1", "result": 3.9, "unit": "log2"}, {"measurement": "other: normalized enrichment (log2) WT Hop / K8A,K229A Hop", "setting": "HSPA4", "result": 1.7, "unit": "log2"}, {"measurement": "other: normalized enrichment (log2) WT Hop / K8A,K229A Hop", "setting": "PSMD12", "result": 3.1, "unit": "log2"}, {"measurement": "other: normalized enrichment (log2) WT Hop / K8A,K229A Hop", "setting": "HSPA4L", "result": 3, "unit": "log2"}, {"measurement": "other: normalized enrichment (log2) WT Hop / K8A,K229A Hop", "setting": "PSMC2", "result": 0.65, "unit": "log2"}, {"measurement": "other: normalized enrichment (log2) WT Hop / K8A,K229A Hop", "setting": "DNAJA2", "result": 4.3, "unit": "log2"}, {"measurement": "other: normalized enrichment (log2) WT Hop / K8A,K229A Hop", "setting": "PSMC5", "result": 1.3, "unit": "log2"}, {"measurement": "other: normalized enrichment (log2) WT Hop / K8A,K229A Hop", "setting": "PSMD3", "result": 1.5, "unit": "log2"}, {"measurement": "other: normalized enrichment (log2) WT Hop / K8A,K229A Hop", "setting": "HSPA6;HSPA7", "result": 4.5, "unit": "log2"}, {"measurement": "other: normalized enrichment (log2) WT Hop / K8A,K229A Hop", "setting": "USP10", "result": 2.5, "unit": "log2"}, {"measurement": "other: normalized enrichment (log2) WT Hop / K8A,K229A Hop", "setting": "UBA1", "result": 0.85, "unit": "log2"}, {"measurement": "other: normalized enrichment (log2) WT Hop / K8A,K229A Hop", "setting": "PSMC1", "result": 0.95, "unit": "log2"}, {"measurement": "other: normalized enrichment (log2) WT Hop / K8A,K229A Hop", "setting": "UBE2N;UBE2NL", "result": 0.8, "unit": "log2"}, {"measurement": "other: normalized enrichment (log2) WT Hop / K8A,K229A Hop", "setting": "HSPA5", "result": 2.5, "unit": "log2"}, {"measurement": "other: normalized enrichment (log2) WT Hop / K8A,K229A Hop", "setting": "USP5", "result": 2.3, "unit": "log2"}]}]}
